Source: the Human Domainome abundance scans (Beltran et al. 2025)

B1: Integrator complex subunit 12, residues 155 to 213; numbered along this chain, Q96CB8 (parent)
chain: AMEMGLACVVCRQMMVASGNQLVECQECHNLYHRDCHKPQVTDKEANDPRLVWYCARCT
B2: RNA-binding E3 ubiquitin-protein ligase MEX3C, residues 325 to 391; numbered along this chain, Q5U5Q3 (parent)
chain: GQTTVQVRVPYRVVGLVVGPKGATIKRIQQQTHTYIVTPSRDKEPVFEVTGMPENVDRAREEIEMHI

Variants of: B1
Assay: abundance fitness (aPCA) (normalised: wild type 0, dead -1); higher = more abundant; growth selection in yeast, the domain comes from the species named
Conditions: Homo sapiens

Abundance fitness: each site, then its substitutions
L6: F -0.081 | S 0.073 | Q 0.014 | G -0.034 | C -0.054 | I 0.007 | D 0.075 | A 0.099 | H 0.038 | Y -0.063 | K 0.173 | V 0.036 | R -0.08 | W -0.552 | P -0.03 | M 0.086 | T 0.041 | E -0.106
V9: F -0.081 | E -0.197 | C 0.049 | S -0.118 | Y -0.147 | K -0.279 | A -0.046 | N -0.223 | G -0.216 | P -0.289 | T -0.02 | Q 0.051 | W -0.45 | L -0.202 | I -0.101 | R -0.181 | M -0.204 | D -0.248
G5: H 0.026 | N 0.043 | I -0.205 | A -0.001 | E 0.066 | K 0.143 | L -0.216 | C -0.143 | Q 0.085 | P -0.053 | M -0.152 | Y -0.267 | F -0.28 | T -0.045 | V -0.13 | S 0.007 | R -0.058
V10: C -0.193 | E -0.11 | M -0.153 | I -0.047 | F -0.241 | G -0.206 | A -0.059 | K -0.242 | H -0.161
M4: D -0.06 | F -0.096 | Y -0.168 | I 0.023 | P -0.022 | W -0.43 | L -0.027 | C -0.026 | H 0.065 | G -0.044 | K -0.034 | S 0.045 | Q -0.055 | V 0.006 | T 0.04
A1: P -0.581 | I -0.049 | T 0.125 | C -0.099 | R -0.061 | V 0.037 | S 0.046 | W -0.199 | G -0.115 | F -0.161 | N 0.109 | M 0.03 | H 0.245 | K 0.154 | Y -0.168
A7: N 0.039 | L -0.064 | E -0.064 | W -0.41 | T 0.032 | F -0.172 | P 0.069 | S 0.01 | M -0.069 | I 0.008 | D -0.027 | C -0.022 | G -0.155 | Q -0.077 | Y -0.144 | H 0.078
C8: W -1.38 | P -0.633 | L -0.978 | R -0.841 | M -1.19 | G -1.11 | F -1 | V -1.14 | S -0.757 | H -0.901 | I -1.04 | D -0.787 | T -0.814 | E -0.927 | N -0.675 | K -0.874 | Q -0.71
M2: T 0.073 | S 0.065 | W -0.167 | L -0.003 | K -0.013 | P -0.31 | A -0.142 | H -0.136 | I 0.059 | G 0.009 | C -0.112 | R -0.054 | F -0.055 | E -0.046 | D -0.185 | Y -0.127 | N -0.112 | Q -0.058
E3: L -0.321 | T -0.137 | Q -0.102 | Y -0.222 | I -0.238 | R -0.304 | N -0.056 | F -0.304 | H -0.163 | G -0.167 | D -0.065 | V -0.119 | S -0.038 | P -0.359 | C -0.168 | M -0.232 | A -0.103 | K -0.089

Variants of: B2
Assay: as above
Conditions: Homo sapiens

Abundance fitness: each site, then its substitutions
I67: R -0.515 | S -0.027 | W 0.289 | M -0.635 | K -0.778 | A 0.163 | G 0.026 | T -0.023 | P -0.773 | F -0.437 | C -0.104 | Y 0.476 | V 0.119 | E -0.235
E62: C 0.054 | I -0.318 | L 0.115 | Q 0.034 | A 0.025 | D -0.494 | T -0.52 | S -0.373 | V -0.114 | H -0.602 | P -1.01 | R -0.299 | N -0.639 | Y -0.255 | M 0.132 | G -0.679 | K -0.126
I63: W -0.768 | P -0.461 | H -0.772 | C -0.734 | A -0.845 | S -0.894 | V -0.512 | N -0.094 | Y -0.748 | M -0.772 | L -0.412 | G -0.899 | Q -0.863
E61: S -0.089 | T -0.037 | P -0.85 | D -0.043 | F -0.342 | Y -0.177 | K 0.069 | M -0.161 | Q -0.023 | N -0.36 | A 0.014 | L -0.266 | G -0.343 | H 0.022 | V -0.17 | W -0.353 | I -0.472
A59: I -1.08 | V -0.719 | Q -0.802 | W -1.08 | L -0.886 | M -0.313 | T -0.929 | P -0.854 | E -0.967 | C -0.374 | H -0.859 | R -0.762 | S -0.829 | D -0.915 | K -0.671
E64: D -0.015 | F -0.029 | L 0.056 | M -0.006 | P -0.435 | H -0.222 | W -0.179 | G -0.606 | C -0.309 | K -0.193 | S -0.281 | Y -0.271 | T -0.779 | V -0.66
R60: P -0.651 | D -1.13 | F -0.526 | A -0.694 | W -0.53 | I -0.026 | V -0.006 | M -0.296 | T -0.557 | E -0.739 | G -0.575 | L -0.098 | C -0.025 | Q -0.639 | H -0.401 | K -0.024
M65: R 0.216 | A 0.142 | T 0.004 | I -0.099 | V -0.449 | Q 0.225 | F -0.264 | C -0.285 | H 0.125 | L -0.114 | W -0.184 | S 0.12 | D -0.223 | G -0.049 | P -0.699 | N 0.033 | K 0.224 | Y 0.366
D57: W -0.245 | V -0.143 | K 0.22 | E 0.137 | L -0.057 | C -0.072 | H -0.472 | Q -0.108 | I -0.11 | S -0.229 | P -0.673 | T 0.013 | M 0.132 | R 0.018 | Y -0.303 | G -0.198 | N 0.069 | F -0.176
H66: G -0.465 | C 0.089 | V 0.286 | W -0.079 | S -0.336 | D -0.625 | K -0.039 | L 0.282 | F 0.135 | Q 0.166 | I 0.404 | Y 0.11 | T 0.198 | P -0.88 | E -0.143 | R 0.178
R58: N -0.434 | S -0.614 | P -1.09 | I -0.954 | W -0.555 | E -0.572 | G -0.675 | D -0.73 | C -0.36 | M -0.409 | Q -0.304 | T -1.1 | V -0.616 | K 0.067 | F -0.519
